Reference: article PMC8307404, “Crystal Structure-Guided Design of Bisubstrate Inhibitors and Photoluminescent Probes for Protein Kinases of the PIM Family” (Molecules, 2021)
Square brackets hold non-standard residues; d marks the D form. Peptide text beside a SMILES is read from it. * marks the point of attachment. X3 = O=C(CCCCCNCc1nc2c(sc3cc(Br)cnc32)c(=O)[nH]1)*

Key:
Experiment in all cases: Kinase profiling (radiometric filter-binding)
Assay type in all cases: biochemical
[1] = target: T1, NEK2 (Homo sapiens, UniProt P51955); conditions: NEK2 (letter lost), 1 µM inhibitor; read-out: Residual activity, %
T1 sequence (P51955 1-445): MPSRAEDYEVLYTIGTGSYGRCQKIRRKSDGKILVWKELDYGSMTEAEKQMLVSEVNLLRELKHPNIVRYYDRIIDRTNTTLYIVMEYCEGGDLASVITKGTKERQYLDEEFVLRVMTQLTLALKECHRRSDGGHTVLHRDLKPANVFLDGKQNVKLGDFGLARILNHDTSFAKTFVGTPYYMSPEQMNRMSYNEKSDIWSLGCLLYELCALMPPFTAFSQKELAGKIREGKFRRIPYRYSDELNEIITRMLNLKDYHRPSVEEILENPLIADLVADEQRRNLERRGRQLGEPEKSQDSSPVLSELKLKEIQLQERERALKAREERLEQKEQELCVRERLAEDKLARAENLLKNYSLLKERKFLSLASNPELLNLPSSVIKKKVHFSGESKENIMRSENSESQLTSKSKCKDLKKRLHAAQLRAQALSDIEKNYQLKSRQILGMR
Method in brief: (§1)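 A 1 µM final dose of each inhibitor was profiled on human protein kinases; ATP was kept at or beneath the KM of every enzyme, and radiometric filter binding measured turnover, expressed as % of the inhibitor-free reaction.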

[2] = target: Aurora B (Homo sapiens, UniProt Q96GD4); conditions: 1 µM inhibitor, read-out: Residual activity, %
Sequence of Aurora B (Q96GD4 whole entry): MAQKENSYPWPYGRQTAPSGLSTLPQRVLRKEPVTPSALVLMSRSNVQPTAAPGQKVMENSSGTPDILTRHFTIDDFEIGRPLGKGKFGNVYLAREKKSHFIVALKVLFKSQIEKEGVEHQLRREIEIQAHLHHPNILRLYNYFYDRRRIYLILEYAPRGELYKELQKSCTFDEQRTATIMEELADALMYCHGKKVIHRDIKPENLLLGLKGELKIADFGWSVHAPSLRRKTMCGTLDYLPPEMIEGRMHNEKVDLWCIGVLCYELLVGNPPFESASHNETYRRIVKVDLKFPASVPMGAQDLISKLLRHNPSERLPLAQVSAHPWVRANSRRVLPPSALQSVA
Method in brief: as §1

[3] = target: SYK (Homo sapiens, UniProt P43405); conditions: 1 µM inhibitor, read-out: Residual activity, %
Method in brief: as §1

[4] = target: MARK2 (Homo sapiens, UniProt Q7KZI7); conditions: MARK2, 1 µM inhibitor; read-out: Residual activity, %
Sequence of MARK2 (Q7KZI7 whole entry): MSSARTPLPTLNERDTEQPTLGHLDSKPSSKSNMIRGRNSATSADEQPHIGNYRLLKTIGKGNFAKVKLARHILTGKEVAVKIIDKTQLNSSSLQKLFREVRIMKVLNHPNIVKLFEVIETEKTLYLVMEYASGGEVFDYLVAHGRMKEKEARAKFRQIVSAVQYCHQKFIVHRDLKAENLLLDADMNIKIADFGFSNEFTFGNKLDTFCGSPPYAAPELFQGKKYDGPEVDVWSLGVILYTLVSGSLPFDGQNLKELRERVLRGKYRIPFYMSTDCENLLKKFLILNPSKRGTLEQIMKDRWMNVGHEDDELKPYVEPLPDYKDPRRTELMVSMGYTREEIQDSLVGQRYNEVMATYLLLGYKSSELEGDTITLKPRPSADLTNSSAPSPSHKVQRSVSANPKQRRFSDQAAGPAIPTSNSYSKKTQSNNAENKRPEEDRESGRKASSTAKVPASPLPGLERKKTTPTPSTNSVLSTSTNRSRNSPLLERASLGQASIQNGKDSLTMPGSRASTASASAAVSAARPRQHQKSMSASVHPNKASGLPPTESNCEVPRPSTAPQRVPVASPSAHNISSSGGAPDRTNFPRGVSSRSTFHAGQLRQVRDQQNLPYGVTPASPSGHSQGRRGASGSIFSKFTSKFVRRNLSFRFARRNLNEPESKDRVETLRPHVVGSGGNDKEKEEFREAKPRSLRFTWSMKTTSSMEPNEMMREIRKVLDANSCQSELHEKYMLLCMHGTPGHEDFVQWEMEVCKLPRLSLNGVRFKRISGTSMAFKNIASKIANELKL
Method in brief: as §1

[5] = target: T2, TLK1 (Homo sapiens, UniProt Q9UKI8); conditions: TLK1, 1 µM inhibitor; read-out: Residual activity, %
T2 sequence (Q9UKI8 1-766): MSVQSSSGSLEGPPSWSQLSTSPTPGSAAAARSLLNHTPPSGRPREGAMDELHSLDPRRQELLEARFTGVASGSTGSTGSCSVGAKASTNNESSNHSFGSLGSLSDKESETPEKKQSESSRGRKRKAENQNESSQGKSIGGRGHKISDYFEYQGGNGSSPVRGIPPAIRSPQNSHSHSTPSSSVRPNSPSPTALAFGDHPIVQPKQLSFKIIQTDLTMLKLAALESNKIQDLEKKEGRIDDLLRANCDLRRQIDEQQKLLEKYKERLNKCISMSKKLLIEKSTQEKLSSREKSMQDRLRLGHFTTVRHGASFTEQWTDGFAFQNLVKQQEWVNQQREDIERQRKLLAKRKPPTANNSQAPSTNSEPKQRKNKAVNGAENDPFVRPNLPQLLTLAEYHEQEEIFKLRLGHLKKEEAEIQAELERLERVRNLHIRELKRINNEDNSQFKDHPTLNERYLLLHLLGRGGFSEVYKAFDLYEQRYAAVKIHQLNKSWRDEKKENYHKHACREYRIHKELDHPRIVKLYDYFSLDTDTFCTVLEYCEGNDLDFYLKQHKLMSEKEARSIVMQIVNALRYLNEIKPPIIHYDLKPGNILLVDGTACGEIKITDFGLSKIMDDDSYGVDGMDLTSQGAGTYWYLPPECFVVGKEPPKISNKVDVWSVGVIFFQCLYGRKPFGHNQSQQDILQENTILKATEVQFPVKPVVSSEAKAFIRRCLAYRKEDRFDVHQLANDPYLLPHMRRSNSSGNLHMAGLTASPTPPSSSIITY
Method in brief: as §1

[6] = target: T3, EPH-B4 (Homo sapiens, UniProt P54760); conditions: EPH-B4, 1 µM inhibitor; read-out: Residual activity, %
T3 sequence (P54760 16-987): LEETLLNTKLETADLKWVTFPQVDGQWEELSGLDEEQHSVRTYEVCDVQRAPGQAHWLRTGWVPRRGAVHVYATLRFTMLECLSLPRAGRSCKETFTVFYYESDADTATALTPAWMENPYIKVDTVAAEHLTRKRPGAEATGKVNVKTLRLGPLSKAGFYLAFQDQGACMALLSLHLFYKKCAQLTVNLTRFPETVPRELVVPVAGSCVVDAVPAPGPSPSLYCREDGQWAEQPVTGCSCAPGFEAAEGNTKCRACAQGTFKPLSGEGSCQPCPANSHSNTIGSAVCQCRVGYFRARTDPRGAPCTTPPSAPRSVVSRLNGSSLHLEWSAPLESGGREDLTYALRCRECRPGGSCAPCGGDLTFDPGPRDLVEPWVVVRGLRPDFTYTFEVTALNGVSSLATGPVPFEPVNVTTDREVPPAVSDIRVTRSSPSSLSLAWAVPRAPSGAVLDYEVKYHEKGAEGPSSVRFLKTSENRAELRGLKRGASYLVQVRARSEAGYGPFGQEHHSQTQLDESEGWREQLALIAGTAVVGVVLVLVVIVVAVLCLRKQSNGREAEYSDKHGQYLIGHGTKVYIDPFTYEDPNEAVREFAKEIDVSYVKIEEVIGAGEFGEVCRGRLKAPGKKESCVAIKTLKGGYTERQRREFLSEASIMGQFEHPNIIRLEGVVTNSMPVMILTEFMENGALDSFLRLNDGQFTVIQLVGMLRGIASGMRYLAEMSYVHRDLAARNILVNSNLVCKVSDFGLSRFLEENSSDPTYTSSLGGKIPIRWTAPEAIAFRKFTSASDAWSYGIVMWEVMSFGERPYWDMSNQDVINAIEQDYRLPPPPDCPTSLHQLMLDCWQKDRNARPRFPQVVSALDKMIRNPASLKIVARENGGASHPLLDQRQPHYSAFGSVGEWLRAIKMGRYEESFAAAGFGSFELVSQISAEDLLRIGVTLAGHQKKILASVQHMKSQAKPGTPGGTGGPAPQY
Method in brief: as §1

[7] = target: ROCK 2 (Homo sapiens, UniProt O75116); conditions: ROCK 2, 1 µM inhibitor; read-out: Residual activity, %
Sequence of ROCK 2 (O75116 whole entry): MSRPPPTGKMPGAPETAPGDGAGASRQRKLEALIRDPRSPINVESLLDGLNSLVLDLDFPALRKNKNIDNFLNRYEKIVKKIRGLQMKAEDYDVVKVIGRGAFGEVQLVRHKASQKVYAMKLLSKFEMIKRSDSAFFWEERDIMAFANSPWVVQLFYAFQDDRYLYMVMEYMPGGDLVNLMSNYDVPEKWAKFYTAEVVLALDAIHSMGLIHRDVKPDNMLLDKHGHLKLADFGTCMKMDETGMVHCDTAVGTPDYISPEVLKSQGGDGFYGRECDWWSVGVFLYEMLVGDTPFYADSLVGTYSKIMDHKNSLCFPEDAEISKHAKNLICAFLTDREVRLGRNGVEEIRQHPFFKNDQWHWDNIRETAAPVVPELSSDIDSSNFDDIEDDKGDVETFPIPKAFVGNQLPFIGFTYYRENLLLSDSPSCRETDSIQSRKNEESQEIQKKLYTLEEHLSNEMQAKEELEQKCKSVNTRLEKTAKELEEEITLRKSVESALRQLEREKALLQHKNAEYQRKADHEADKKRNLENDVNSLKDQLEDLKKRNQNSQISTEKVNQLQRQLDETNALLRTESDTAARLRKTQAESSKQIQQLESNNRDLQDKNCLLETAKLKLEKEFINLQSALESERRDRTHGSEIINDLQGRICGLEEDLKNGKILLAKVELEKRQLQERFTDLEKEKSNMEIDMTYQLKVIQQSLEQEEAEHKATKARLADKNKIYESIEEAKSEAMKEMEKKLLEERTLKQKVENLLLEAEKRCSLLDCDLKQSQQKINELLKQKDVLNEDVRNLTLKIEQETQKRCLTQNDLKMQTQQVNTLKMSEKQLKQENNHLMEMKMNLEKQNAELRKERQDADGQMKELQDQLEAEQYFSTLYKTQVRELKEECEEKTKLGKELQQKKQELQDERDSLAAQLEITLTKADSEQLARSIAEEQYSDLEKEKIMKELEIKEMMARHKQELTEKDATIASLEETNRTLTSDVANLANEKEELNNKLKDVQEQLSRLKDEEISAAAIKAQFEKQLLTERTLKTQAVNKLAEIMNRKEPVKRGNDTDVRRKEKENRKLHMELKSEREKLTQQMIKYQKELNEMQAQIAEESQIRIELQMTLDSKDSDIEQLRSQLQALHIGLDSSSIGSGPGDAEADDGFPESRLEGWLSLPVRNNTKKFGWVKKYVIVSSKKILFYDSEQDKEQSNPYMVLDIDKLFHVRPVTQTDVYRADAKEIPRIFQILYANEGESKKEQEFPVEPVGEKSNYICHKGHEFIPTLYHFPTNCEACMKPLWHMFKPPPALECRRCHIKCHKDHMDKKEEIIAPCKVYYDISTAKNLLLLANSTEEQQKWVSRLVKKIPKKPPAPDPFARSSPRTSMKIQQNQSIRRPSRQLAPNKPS
Method in brief: as §1

[8] = target: NEK6 (Homo sapiens, UniProt Q9HC98); conditions: NEK6, 1 µM inhibitor; read-out: Residual activity, %
Sequence of NEK6 (Q9HC98 whole entry): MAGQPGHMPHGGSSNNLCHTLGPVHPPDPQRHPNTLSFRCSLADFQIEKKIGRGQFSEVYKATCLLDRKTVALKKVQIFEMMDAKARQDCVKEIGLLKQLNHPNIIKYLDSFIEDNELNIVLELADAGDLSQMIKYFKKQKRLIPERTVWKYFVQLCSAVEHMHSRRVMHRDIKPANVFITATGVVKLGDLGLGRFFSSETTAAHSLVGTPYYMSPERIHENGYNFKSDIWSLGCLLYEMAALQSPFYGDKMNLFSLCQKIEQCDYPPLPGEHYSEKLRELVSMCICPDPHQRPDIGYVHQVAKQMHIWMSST
Method in brief: as §1

Structure (SMILES) | remaining activity at 1 µM [1] [%] | remaining activity at 1 µM [2] [%] | remaining activity at 1 µM [3] [%] | remaining activity at 1 µM [4] [%] | remaining activity at 1 µM [5] [%] | remaining activity at 1 µM [6] [%] | remaining activity at 1 µM [7] [%] | remaining activity at 1 µM [8] [%]
N=C(N)NCCC[C@@H](NC(=O)CCCCCNC(=O)Cn1cnc2c(I)c(I)c(I)c(I)c21)C(=O)N[C@H](CCCNC(=N)N)C(=O)N[C@H](CCCNC(=N)N)C(=O)N[C@H](CCCNC(=N)N)C(=O)N[C@H](CCCNC(=N)N)C(=O)N[C@H](CCCNC(=N)N)C(=O)N[C@H](CCCCN)C(N)=O [ARC-3125, TIBI-CH2-C(=O)-Ahx-(D-Arg)6-D-Lys-NH2] | 21 ± 3 | 100 ± 4 | 94 ± 10 | 86 ± 4 | 78 ± 1 | 119 ± 7 | 5 ± 1 | 97
N=C(N)NCCC[C@@H](NC(=O)CCCCCNCc1nc2c(sc3cc(Br)cnc32)c(=O)[nH]1)C(=O)N[C@H](CCCNC(=N)N)C(=O)N[C@H](CCCNC(=N)N)C(=O)N[C@H](CCCNC(=N)N)C(=O)N[C@H](CCCNC(=N)N)C(=O)N[C@H](CCCNC(=N)N)C(=O)N[C@H](CCCCN)C(N)=O [ARC-3126, BPTP-Ahx-(D-Arg)6-D-Lys-NH2] (X3-[dR][dR][dR][dR][dR][dR][dK]-NH2) | 91 ± 2 | 114 ± 20 | 75 ± 20 | 103 ± 7 | 91 ± 10 | 101 ± 10 | 65 ± 17 | 85 ± 17
N=C(N)NCCC[C@@H](NC(=O)CNC(=O)[C@@H](CCCNC(=N)N)NC(=O)[C@@H](CCCNC(=N)N)NC(=O)CCCCCCCNCc1nc2c(sc3cc(Br)cnc32)c(=O)[nH]1)C(=O)N[C@H](CCCCN)C(N)=O [Compound 1, BPTP-Aoc-(D-Arg)2-Gly-D-Arg-D-Lys-NH2] | 108 ± 5 | 102 ± 19 | 133 ± 15 | 106 ± 10 | 118 ± 1 | 104 ± 2 | 114 ± 17 | 107 ± 11
N=C(N)NCCC[C@@H](NC(=O)CNC(=O)[C@@H](CCCNC(=N)N)NC(=O)[C@@H](CCCNC(=N)N)NC(=O)CCCCCCCNCc1nc2c(sc3ccc(Br)cc32)c(=O)[nH]1)C(=O)N[C@H](CCCCN)C(N)=O [Compound 2, BBTP-Aoc-(D-Arg)2-Gly-D-Arg-D-Lys-NH2] | 119 ± 12 | 98 ± 2 | 123 ± 3 | 107 ± 4 | 122 ± 9 | 118 ± 11 | 61 ± 5 | 126 ± 5
N=C(N)NCCC[C@@H](NC(=O)CNC(=O)[C@@H](CCCNC(=N)N)NC(=O)[C@@H](CCCNC(=N)N)NC(=O)Cn1cc(CNCc2nc3c(sc4ccc(Br)cc43)c(=O)[nH]2)nn1)C(=O)N[C@H](CCCCN)C(N)=O [Compound 3, BBTP-Amt-(D-Arg)2-Gly-D-Arg-D-Lys-NH2] | 92 ± 1 | 111 ± 1 | 114 ± 2 | 79 | 109 ± 10 | 98 ± 13 | 62 ± 5 | 117 ± 23
